# Data from the supplement of paper PMC5998384.
# Legend:
# HeLa Kyoto [1] = test: solubility in G1/S (NP-40 vs SDS abundance) (log2 ratio); higher = more soluble; details: cell cycle stage: G1/S
# HeLa Kyoto [2] = test: melting temperature (median over replicates), in situ; higher = more thermally stable
# HeLa Kyoto [3] = test: solubility change mitosis vs G1/S (difference of NP-40 vs SDS log2 ratios) (log2 ratio difference); higher = more soluble in mitosis
# HeLa Kyoto [4] = test: thermal stability score vs G1/S (z-score of summed log2 fold changes over temperatures); higher = more thermally stable than in G1/S
# [5] = cell cycle stage: early G1 (4.5 h after nocodazole release)
# 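For melting temperature (median over replicates), in situ in this document: HeLa Kyoto cells synchronized by double thymidine or nocodazole block, proteins quantified by TMT10plex mass spectrometry, three independent biological replicates.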
# 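For solubility change mitosis vs G1/S (difference of NP-40 vs SDS log2 ratios) in this document: synchronized HeLa Kyoto cells (double thymidine block for G1/S, nocodazole release for mitosis), protein amounts in NP-40 versus SDS lysates quantified by mass spectrometry, three biological replicates.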
# 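For solubility in G1/S (NP-40 vs SDS abundance) in this document: HeLa Kyoto cells arrested at G1/S by double thymidine block, proteins quantified by TMT10plex mass spectrometry in mild NP-40 versus SDS extracts, three biological replicates.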
# 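For thermal stability score vs G1/S (z-score of summed log2 fold changes over temperatures) in this document: synchronized HeLa Kyoto cells, proteins quantified by TMT10plex mass spectrometry, three biological replicates, mitosis taken 0.5 h after nocodazole release, G1/S directly after double thymidine block.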
sequence,measurement,setting,value
MSGTKPDILWAPHHVDRFVVCDSELSLYHVESTVNSELKAGSLRLSEDSAATLLSINSDTPYMKCVAWYLNYDPECLLAVGQANGRVVLTSLGQDHNSKFKDLIGKEFVPKHARQCNTLAWNPLDSNWLAAGLDKHRADFSVLIWDICSKYTPDIVPMEKVKLSAGETETTLLVTKPLYELGQNDACLSLCWLPRDQKLLLAGMHRNLAIFDLRNTSQKMFVNTKAVQGVTVDPYFHDRVASFYEGQVAIWDLRKFEKPVLTLTEQPKPLTKVAWCPTRTGLLATLTRDSNIIRLYDMQHTPTPIGDETEPTIIERSVQPCDNYIASFAWHPTSQNRMIVVTPNRTMSDFTVFERISLAWSPITSLMWACGRHLYECTEEENDNSLEKDIATKMRLRALSRYGLDTEQVWRNHILAGNEDPQLKSLWYTLHFMKQYTEDMDQKSPGNKGSLVYAGIKSIVKSSLGMVESSRHNWSGLDKQSDIQNLNEERILALQLCGWIKKGTDVDVGPFLNSLVQEGEWERAAAVALFNLDIRRAIQILNEGASSEKGDLNLNVVAMALSGYTDEKNSLWREMCSTLRLQLNNPYLCVMFAFLTSETGSYDGVLYENKVAVRDRVAFACKFLSDTQLNRYIEKLTNEMKEAGNLEGILLTGLTKDGVDLMESYVDRTGDVQTASYCMLQGSPLDVLKDERVQYWIENYRNLLDAWRFWHKRAEFDIHRSKLDPSSKPLAQVFVSCNFCGKSISYSCSAVPHQGRGFSQYGVSGSPTKSKVTSCPGCRKPLPRCALCLINMGTPVSSCPGGTKSDEKVDLSKDKKLAQFNNWFTWCHNCRHGGHAGHMLSWFRDHAECPVSACTCKCMQLDTTGNLVPAETVQP [MIOS],solubility in G1/S (log2),HeLa Kyoto [1],-0.271
same,melting temperature,HeLa Kyoto [2]; cell cycle stage: G1/S,53.9 °C
same,melting temperature,HeLa Kyoto [2]; cell cycle stage: mitosis,53 °C
same,solubility change mitosis (log2),HeLa Kyoto [3],0.0327
same,thermal stability score,HeLa Kyoto [4]; [5],-0.829
same,thermal stability score,HeLa Kyoto [4]; cell cycle stage: mitosis,-1.48
MSGWADERGGEGDGRIYVGNLPTDVREKDLEDLFYKYGRIREIELKNRHGLVPFAFVRFEDPRDAEDAIYGRNGYDYGQCRLRVEFPRTYGGRGGWPRGGRNGPPTRRSDFRVLVSGLPPSGSWQDLKDHMREAGDVCYADVQKDGVGMVEYLRKEDMEYALRKLDDTKFRSHEGETSYIRVYPERSTSYGYSRSRSGSRGRDSPYQSRGSPHYFSPFRPY [SRSF9],solubility in G1/S (log2),HeLa Kyoto [1],-0.159
same,melting temperature,HeLa Kyoto [2]; cell cycle stage: G1/S,50 °C
same,melting temperature,HeLa Kyoto [2]; cell cycle stage: mitosis,50.6 °C
same,solubility change mitosis (log2),HeLa Kyoto [3],0.706
same,thermal stability score,HeLa Kyoto [4]; [5],-3.88
same,thermal stability score,HeLa Kyoto [4]; cell cycle stage: mitosis,-3.72
MSGYSSDRDRGRDRGFGAPRFGGSRAGPLSGKKFGNPGEKLVKKKWNLDELPKFEKNFYQEHPDLARRTAQEVETYRRSKEITVRGHNCPKPVLNFYEANFPANVMDVIARQNFTEPTAIQAQGWPVALSGLDMVGVAQTGSGKTLSYLLPAIVHINHQPFLERGDGPICLVLAPTRELAQQVQQVAAEYCRACRLKSTCIYGGAPKGPQIRDLERGVEICIATPGRLIDFLECGKTNLRRTTYLVLDEADRMLDMGFEPQIRKIVDQIRPDRQTLMWSATWPKEVRQLAEDFLKDYIHINIGALELSANHNILQIVDVCHDVEKDEKLIRLMEEIMSEKENKTIVFVETKRRCDELTRKMRRDGWPAMGIHGDKSQQERDWVLNEFKHGKAPILIATDVASRGLDVEDVKFVINYDYPNSSEDYIHRIGRTARSTKTGTAYTFFTPNNIKQVSDLISVLREANQAINPKLLQLVEDRGSGRSRGRGGMKDDRRDRYSAGKRGGFNTFRDRENYDRGYSSLLKRDFGAKTQNGVYSAANYTNGSFGSNFVSAGIQTSFRTGNPTGTYQNGYDSTQQYGSNVPNMHNGMNQQAYAYPATAAAPMIGYPMPTGYSQ [DDX5],solubility in G1/S (log2),HeLa Kyoto [1],-0.551
same,melting temperature,HeLa Kyoto [2]; cell cycle stage: G1/S,47.2 °C
same,melting temperature,HeLa Kyoto [2]; cell cycle stage: mitosis,48.4 °C
same,solubility change mitosis (log2),HeLa Kyoto [3],0.397
same,thermal stability score,HeLa Kyoto [4]; [5],3.64
same,thermal stability score,HeLa Kyoto [4]; cell cycle stage: mitosis,11.3
MSHPSWLPPKSTGEPLGHVPARMETTHSFGNPSISVSTQQPPKKFAPVVAPKPKYNPYKQPGGEGDFLPPPPPPLDDSSALPSISGNFPPPPPLDEEAFKVQGNPGGKTLEERRSSLDAEIDSLTSILADLECSSPYKPRPPQSSTGSTASPPVSTPVTGHKRMVIPNQPPLTATKKSTLKPQPAPQAGPIPVAPIGTLKPQPQPVPASYTTASTSSRPTFNVQVKSAQPSPHYMAAPSSGQIYGSGPQGYNTQPVPVSGQCPPPSTRGGMDYAYIPPPGLQPEPGYGYAPNQGRYYEGYYAAGPGYGGRNDSDPTYGQQGHPNTWKREPGYTPPGAGNQNPPGMYPVTGPKKTYITDPVSAPCAPPLQPKGGHSGQLGPSSVAPSFRPEDELEHLTKKMLYDMENPPADEYFGRCARCGENVVGEGTGCTAMDQVFHVDCFTCIICNNKLRGQPFYAVEKKAYCEPCYINTLEQCNVCSKPIMERILRATGKAYHPHCFTCVMCHRSLDGIPFTVDAGGLIHCIEDFHKKFAPRCSVCKEPIMPAPGQEETVRIVALDRDFHVHCYRCEDCGGLLSEGDNQGCYPLDGHILCKTCNSARIRVLTAKASTDL,solubility in G1/S (log2),HeLa Kyoto [1],0.203
same,melting temperature,HeLa Kyoto [2]; cell cycle stage: G1/S,55.6 °C
same,melting temperature,HeLa Kyoto [2]; cell cycle stage: mitosis,54.4 °C
same,solubility change mitosis (log2),HeLa Kyoto [3],-0.115
same,thermal stability score,HeLa Kyoto [4]; [5],-2.33
same,thermal stability score,HeLa Kyoto [4]; cell cycle stage: mitosis,-1.52
